From US20160030595A1 (THOMAS JEFFERSON UNIVERSITY, published 2016) come the findings set out here.

The target of the assay is T1, human guanylyl cyclase C (GCC) (human, UniProt P25092 24-430, limits assumed).
T1 construct: also called human GCC; STAR
The experiment in a line: not described.

T1 sequence (P25092 24-430 limits assumed): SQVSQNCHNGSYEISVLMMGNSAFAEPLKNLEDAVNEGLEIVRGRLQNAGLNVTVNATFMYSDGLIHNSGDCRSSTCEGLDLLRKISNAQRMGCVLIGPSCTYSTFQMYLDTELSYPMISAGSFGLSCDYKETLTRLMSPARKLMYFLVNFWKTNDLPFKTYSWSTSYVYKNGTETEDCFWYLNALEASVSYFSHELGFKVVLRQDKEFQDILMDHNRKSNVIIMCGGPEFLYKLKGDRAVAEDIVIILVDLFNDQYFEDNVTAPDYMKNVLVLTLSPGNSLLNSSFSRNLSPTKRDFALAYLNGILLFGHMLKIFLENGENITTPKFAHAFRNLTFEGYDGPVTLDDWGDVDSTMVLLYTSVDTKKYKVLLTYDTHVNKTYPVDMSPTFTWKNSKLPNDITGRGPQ

B1: MS20 mouse monoclonal antibody (IgG2ak) (antibody, V domains shown)
VH: EVQLEESGPELVKPGASVKMSCKASGYTFTDYVISWVKQRTGQGLEWIGVTYPGSGNTYYGERFKGKATLTVDKMSNTAYMQLSSLTSEDSAVYFCTRNYGSFYALDYWGQGTSVTVSS
VL: DILMTQSPATLSVTPGDRVSLSCRASQSIRDYLHWYQHRSHESPRLLIKYASQSISGIPSRFSGSGSGSDFTLTINSVEPEDVGVYYCQNGHSFPTFGGGTKLEIK
In the case of B1, the binding result is “binds”.

B2: MS7 mouse monoclonal antibody (IgG1k) (antibody, V domains shown)
VH: EVMLVESGGGLVKPGGSLKLSCAASGFTFSTYAMSWVRQTPEKRLEWVATITSGGSYTYYPDSVKGRFTISRDNAKNILYLQMSSLRSEDTAMYYCTRLRQIGLRGFSDYWGQGTTLTVSS
VL: DILMTQSPSSMYASLGERVTITCKASHDIKSYLSWYQQKPWRSPKTLIYYTTALADGVPSRFSGSGSGQDYSLTISSLESDDTATYYCLQHGESPYTFGGGTKLEIK
B2: the binding result is given as “binds”.
